Results on seven sequences are retold here after the DeepSol protein solubility set.

The nature of this data set: soluble on expression in E. coli; label from the status in PepcDB or PDB records.
Regarding “MGSDKIHHHHHHMQKKGNKYGTHRVLAPQGVLPQPAEKVDNNMDEIYDNEILIDVKTLNIDSASFTQIHEQAGGDKAKIAEIMLGIVAKQGKHRNPVTGSGGMLLGVVEKIGDALKDKIDLKVGDKIATLVSLSLTPLRIDKIKEIRPDVDQVDIEGKAILFESGIYAKIPNDLPEKLALSALDVAGAPAQTAKLVKPGDTVLIIGAGGKSGMLCCYEAKKRAGVTGKVIGLCHSQKSTDRLKALGFCDHVFSADATKPVPVMEEIEKLTNGEMCDVTINNVNITDTEMTSILCTKNDGIVYFFSMATSFTKAALGAEGVGSDVTMIVGNGYTKGHAEITLQELRECEALRKVFTELYA”, the “soluble on expression in E. coli” value is on record as “not soluble”.
For the sequence “MSMQEMVTISIVTYNSRYIFNVLDQLKAELGTDSIYDIHIYDNHSETAYLEKLTTYEPFITIHRAEENQGFGHGHNQVLFNASTKYAIIFNPDVLVTKDVLDRLLNRIKIDKNIAVVSPKVLNEDGTTQYLVRQKLDVFDYMLRFIPFQFVKKIFDKRLSIYECRDLSDTETTDIKMGSGCFMLIDREKFVEIGGFDERFFMYFEDNDLCLRFGKAGYRILYTPFETVVHMYEKGAHKSRKLFKIFMQSMGKFFNKWGWRFFLEHHHHHH”, the “soluble on expression in E. coli” value is “soluble”.
With “MPTERPTTTAPVSLRERRRTAAAREILDAAEQHIGEHGPAALSLRAVARGLGMTVQALYHYFPNRDALVTALITKAYGELSDVLQAAADSVRADPATPRPVAVAEAYRGWGVARPEHFQLLYGTPLRYYAAPAEGPTTQAVRRMGAIFQRELFAGFTPAQLAAAEVPALSPSYREHLEQLPMHAQGDLPPAAASLFLSAWGHVHGLVVLEVFGHTAFLGDHQAEVFRTSVRMMLEDIHRRIPAA”, the “soluble on expression in E. coli” value was “not soluble”.
For the sequence “GNSITSATDEQPHIGNYRLQKTIGKGNFAKVKLARHVLTGREVAVKIIDKTQLNPTSLQKLFREVRIMKILNHPNIVKLFEVIETEKTLYLVMEYASGGEVFDYLVAHGRMKEKEARAKFRQIVSAVQYCHQKYIVHRDLKAENLLLDGDMNIKIADFGFSNEFTVGNKLDTFCGSPPYAAPELFQGKKYDGPEVDVWSLGVILYTLVSGSLPFDGQNLKELRERVLRGKYRIPFYMSTDCENLLKKLLVLNPIKRGSLEQIMKDRWMNVGHEEEELKPYTEPDPDFNDTKRIDIMVTMGFARDEINDALINQKYDEVMATYILLGRK”, the “soluble on expression in E. coli” value was “soluble”.
For “MFPYFESVATASTEFHAIEPDPHMRRQAAEQANTQATPIHIESSPAEALPYYEDTFDVVITSMVFCTIPDIESAMSEITRVLKPGGELRFFEHVIDDGWRARLQSALAPLWKRLAGGCHLTRQTGTRLVADQSFDVVEIERLNLGITPIRPFVRGRLRKRSVSSTRLEHHHHHH”, the “soluble on expression in E. coli” value is on record as “not soluble”.
The same measure for “MLKIDAIAFFGSKTKLANVAGVRLASVAAWGELVPEGRAMRLQEASGGELQYDPKVYDEYRKAKRAGRLNNENHH”: “not soluble”; for “MVSEEEEEEDGDAEETQDSEDDEEDEMEEDDDDSDYPEEMEDDDDDASYCTESSFRSHSTYSSTPGRRKPRVHRPRSPILEEKDIPPLEFPKSSEDLMVPNEHIMNVIAIYEVLRNFGTVLRLSPFRFEDFCAALVSQEQCTLMAEMHVVLLKAVLREEDTSNTTFGPADLKDSVNSTLYFIDGMTWPEVLRVYCESDKEYHHVLPYQEAEDYPYGPVENKIKVLQFLVDQFLTTNIAREELMSEGVIQYDDHCRVCHKLGDLLCCETCSAVYHLECVKPPLEEVPEDEWQCEVCVAHKVPGVTDCVAEIQKNKPYIRHEPIGYDRSRRKYWFLNRRLIIEEDTENENEKKIWYYSTKVQLAELIDCLDKDYWEAELCKILEEMREEIHRHMDITEDLTNKARGSNKSFLAAANEEILESIRAKKGDIDNVKSPEETEKDKNETENDSKDAEKNREEFEDQSLEKDSDDKTPDDDPEQGKSEEPTEVGDKGNSVSANLGDNTTNATSEETSPSEGRSPVGCLSETPDSSNMAEKKVASELPQDVPVGDFKSEKSNGELSESPGAGKGASGSTRIITRLRNPDSKLSQLKSQQVAAAAHEANKLFKEGKEVLVVNSQGEISRLSTKKEVIMKGNINNYFKLGQEGKYRVYHNQYSTNSFALNKHQHREDHDKRRHLAHKFCLTPAGEFKWNGSVHGSKVLTISTLRLTITQLENNIPSSFLHPNWASHRANWIKAVQMCSKPREFALALAILECAVKPVVMLPIWRESLGHTRLHRMTSIEREEKEKVKKKKKK”: “soluble”.
